B4: GST-LCoR (other)
chain: MQRMIQQFAAEYTSKNSSTQDPSQPNSTKNQSLPKASPVTTSPTAATTQNPVLSKLLMADQDSPLDLTVRKSQSEPSEQDGVLDLSTKKSPCAGSTSLSHSPGCSSTQGNGRPGRPSQYRPDGLRSGDGVPPRSLQDGTREGFGHSTSLKVPLARSLQISEELLSRNQLSTAASLGPSGLQNHGQHLILSREASWAKPHYEFNLSRMKFRGNGALSNISDLPFLAENSAFPKMALQAKQDGKKDVSHSSPVDLKIPQVRGMDLSWESRTGDQYSYSSLVMGSQTESALSKKLRAILPKQSRKSMLDAGPDSWGSDAEQSTPGQPYPTSDQEGDPGSKQPRKKRGRYRQYNSEILEEAISVVMSGKMSVSKAQSIYGIPHSTLEYKVKERLGTLKNPPKKKMKLMRSEGPDVSVKIELDPQGEAAQSANESKNE
notes: also called GST fused to LCoR; not shown: glutathione S-transferase (GST) tag of vector pGEX2TK

Assays:
GST-LCoR = biological target: B4; test: GST pull-down
ERα-EYFP fusion protein = biological target: T1, ERα-EYFP fusion protein (UniProt P03372 1-595); test: BRET in living COS-7 cells
T1 construct: also called EYFP-ERα; not shown: EYFP (engineered fluorescent protein) of vector pEYFP-CMV
T1 sequence (looked up): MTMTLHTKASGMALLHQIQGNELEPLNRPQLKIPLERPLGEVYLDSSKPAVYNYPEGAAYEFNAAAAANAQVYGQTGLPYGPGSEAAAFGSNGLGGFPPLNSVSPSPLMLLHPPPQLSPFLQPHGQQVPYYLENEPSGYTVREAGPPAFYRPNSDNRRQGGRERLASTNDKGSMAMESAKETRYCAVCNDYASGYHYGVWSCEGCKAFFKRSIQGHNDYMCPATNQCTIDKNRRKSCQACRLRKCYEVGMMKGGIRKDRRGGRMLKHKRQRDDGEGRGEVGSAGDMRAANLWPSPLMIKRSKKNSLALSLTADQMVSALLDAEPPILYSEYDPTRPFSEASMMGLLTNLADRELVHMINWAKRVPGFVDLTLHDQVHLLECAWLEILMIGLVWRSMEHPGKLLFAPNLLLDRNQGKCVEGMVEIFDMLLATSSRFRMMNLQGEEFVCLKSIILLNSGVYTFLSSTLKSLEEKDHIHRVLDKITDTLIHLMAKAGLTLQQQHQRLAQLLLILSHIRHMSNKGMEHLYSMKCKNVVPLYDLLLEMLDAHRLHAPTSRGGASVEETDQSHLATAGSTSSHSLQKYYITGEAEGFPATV
Experimental: Cells were washed (2×) with PBS and harvested with 500 μl of PBS-5 mM EDTA. […] Readings were started immediately after coelenterazine H addition, and 10 repeated measures were taken.
BRET ratios were calculated as described in experimental procedures.

HDAC4 = biological target: T2, HDAC4 (UniProt P56524 1-1084, limits assumed); test: GST pull-down, in vitro translated HDAC
T2 construct: also called histone deacetylase 4
T2 sequence (P56524 whole entry): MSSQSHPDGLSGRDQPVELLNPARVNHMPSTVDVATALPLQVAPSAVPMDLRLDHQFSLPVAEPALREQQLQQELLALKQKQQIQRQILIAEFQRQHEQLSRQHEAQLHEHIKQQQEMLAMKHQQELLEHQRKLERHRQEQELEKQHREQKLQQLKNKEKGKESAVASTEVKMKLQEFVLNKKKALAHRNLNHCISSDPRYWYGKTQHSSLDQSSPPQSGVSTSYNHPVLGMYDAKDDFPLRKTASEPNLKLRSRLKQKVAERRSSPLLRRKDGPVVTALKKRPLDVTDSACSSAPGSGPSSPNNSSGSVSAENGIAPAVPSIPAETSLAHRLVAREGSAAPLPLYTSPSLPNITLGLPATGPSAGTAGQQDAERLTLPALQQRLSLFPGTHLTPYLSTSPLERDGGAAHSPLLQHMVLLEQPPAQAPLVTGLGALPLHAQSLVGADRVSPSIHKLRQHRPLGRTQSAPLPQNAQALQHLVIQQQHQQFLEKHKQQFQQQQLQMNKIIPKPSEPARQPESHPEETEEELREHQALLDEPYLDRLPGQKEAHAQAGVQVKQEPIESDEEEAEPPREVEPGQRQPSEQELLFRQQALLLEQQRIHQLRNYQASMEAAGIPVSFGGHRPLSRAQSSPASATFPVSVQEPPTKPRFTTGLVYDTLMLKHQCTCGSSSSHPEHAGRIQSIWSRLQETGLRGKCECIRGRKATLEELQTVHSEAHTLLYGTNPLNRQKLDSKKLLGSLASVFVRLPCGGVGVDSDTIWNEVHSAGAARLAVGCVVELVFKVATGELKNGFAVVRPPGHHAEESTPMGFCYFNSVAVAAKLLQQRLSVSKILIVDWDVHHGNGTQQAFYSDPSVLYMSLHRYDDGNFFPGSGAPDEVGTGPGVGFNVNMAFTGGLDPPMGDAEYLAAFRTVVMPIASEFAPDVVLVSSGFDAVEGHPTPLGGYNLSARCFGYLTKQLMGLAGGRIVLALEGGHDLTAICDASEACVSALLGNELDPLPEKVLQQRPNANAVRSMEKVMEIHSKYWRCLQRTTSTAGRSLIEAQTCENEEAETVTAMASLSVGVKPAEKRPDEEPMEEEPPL

HDAC1 = biological target: T3, HDAC1 (UniProt Q13547 1-482); test: GST pull-down, in vitro translated HDAC
T3 construct: also called histone deacetylase 1
T3 sequence (Q13547 whole entry): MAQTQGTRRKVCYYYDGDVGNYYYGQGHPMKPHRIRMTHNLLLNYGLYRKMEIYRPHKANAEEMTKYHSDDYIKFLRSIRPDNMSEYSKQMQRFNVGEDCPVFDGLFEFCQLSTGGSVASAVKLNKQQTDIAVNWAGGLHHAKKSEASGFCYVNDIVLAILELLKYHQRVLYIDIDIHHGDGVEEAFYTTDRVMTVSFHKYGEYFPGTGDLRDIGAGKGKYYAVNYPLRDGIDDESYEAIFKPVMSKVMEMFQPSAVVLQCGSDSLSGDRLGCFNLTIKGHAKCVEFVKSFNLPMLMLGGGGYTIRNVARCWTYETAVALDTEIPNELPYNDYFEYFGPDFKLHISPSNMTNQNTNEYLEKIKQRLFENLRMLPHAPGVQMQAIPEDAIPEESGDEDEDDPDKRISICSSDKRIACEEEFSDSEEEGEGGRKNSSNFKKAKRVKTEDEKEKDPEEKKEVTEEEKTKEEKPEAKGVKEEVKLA

GST-TIF2.1 = biological target: T4, GST-TIF2.1 (UniProt Q15596 624-1287); test: GST pull-down, in vitro translated ER378
T4 construct: also called GST fused to TIF2.1; not shown: glutathione S-transferase (GST) tag of vector pGEX2T
T4 sequence (looked up): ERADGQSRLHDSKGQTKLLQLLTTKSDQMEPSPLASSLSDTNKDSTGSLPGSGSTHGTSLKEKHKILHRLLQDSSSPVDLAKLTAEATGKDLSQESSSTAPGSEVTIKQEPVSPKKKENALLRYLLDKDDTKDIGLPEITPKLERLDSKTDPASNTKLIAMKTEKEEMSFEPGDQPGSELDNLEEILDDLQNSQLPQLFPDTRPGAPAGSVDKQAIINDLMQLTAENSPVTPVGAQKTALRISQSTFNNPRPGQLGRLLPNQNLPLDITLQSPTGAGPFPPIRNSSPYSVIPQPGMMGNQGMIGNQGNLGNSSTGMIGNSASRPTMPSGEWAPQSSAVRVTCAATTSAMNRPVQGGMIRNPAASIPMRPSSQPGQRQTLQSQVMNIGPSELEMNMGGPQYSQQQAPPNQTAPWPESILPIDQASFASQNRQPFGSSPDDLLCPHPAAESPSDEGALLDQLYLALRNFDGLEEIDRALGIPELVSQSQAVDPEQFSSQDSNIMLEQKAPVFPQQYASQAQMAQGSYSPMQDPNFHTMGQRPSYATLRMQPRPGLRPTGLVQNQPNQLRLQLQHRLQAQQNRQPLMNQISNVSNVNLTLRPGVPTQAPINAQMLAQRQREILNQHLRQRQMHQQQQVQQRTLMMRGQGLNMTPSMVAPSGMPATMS

[1] = biological target: CtBP1 (C-terminal binding protein 1) (human, UniProt Q13363 1-440); test: coimmunoprecipitation with anti-CtBP antibody from transfected MCF-7 cells
Experimental: For immunoprecipitation of endogenous CtBP, CtIP, Rb, or Bmi1, MCF-7 cells in 150 mm dishes were lysed 3 min at 4° C. in 1 ml of LB (150 mM NaCl/10 mM Tris-HCl pH 7.4/0.2 mM Na orthovanadate/1 mM EDTA/1 mM EGTA/1% Triton-100X/0.5% IGEPAL CA-630/protease inhibitor cocktail; Boehringer-Mannheim, Laval, Qc). Cell debris were pelleted by centrifugation (14,000 rpm, 5 min), and proteins immunoprecipitated with 4 μg of αCtBP or αCtIP or αRb or polyclonal rabbit αBMI1 or control rabbit or goat IgG at 4° C. overnight followed by 2 hours incubation at 4° C. with protein A agarose (for αCtBP, αBmi1, control rabbit IgG) or protein A+G agarose (for αCtIP or αRb or control goat IgG). Beads were washed (3×) with LB. […] For immunoprecipitation of tagged proteins, transfected MCF-7 cells were lysed 30 min at 4° C. in 1 ml of LB, 48 h after transfection. Supernatants were cleared, incubated overnight with 4 μg of aCtBP or α-Flag M2 antibody followed by 2 hours incubation with protein-A agarose or protein A+G agarose beads respectively. Beads were washed (3×) with LB and Western blotted as above. Dilutions of specific antibodies used for Western blotting were: α-CtBP1 , α-CtBP2 (1:100), α-Flag M2-peroxidase (1:100).

B1: HE15 (receptor, UniProt P03372 1-282, looked up)
chain: MTMTLHTKASGMALLHQIQGNELEPLNRPQLKIPLERPLGEVYLDSSKPAVYNYPEGAAYEFNAAAAANAQVYGQTGLPYGPGSEAAAFGSNGLGGFPPLNSVSPSPLMLLHPPPQLSPFLQPHGQQVPYYLENEPSGYTVREAGPPAFYRPNSDNRRQGGRERLASTNDKGSMAMESAKETRYCAVCNDYASGYHYGVWSCEGCKAFFKRSIQGHNDYMCPATNQCTIDKNRRKSCQACRLRKCYEVGMMKGGIRKDRRGGRMLKHKRQRDDGEGRGEVGS
notes: range 1-282; also called ERα truncated to amino acid 282 in region D
- binding result (GST-LCoR): no binding

B2: ERα A/B domain (receptor, UniProt P03372 1-180, looked up)
chain: MTMTLHTKASGMALLHQIQGNELEPLNRPQLKIPLERPLGEVYLDSSKPAVYNYPEGAAYEFNAAAAANAQVYGQTGLPYGPGSEAAAFGSNGLGGFPPLNSVSPSPLMLLHPPPQLSPFLQPHGQQVPYYLENEPSGYTVREAGPPAFYRPNSDNRRQGGRERLASTNDKGSMAMESAK
notes: range 1-180; also called ERα truncated to amino acid 180
- binding result (GST-LCoR): no binding

B3: LCoR-LSKAA-rluc fusion protein (other)
chain: MQRMIQQFAAEYTSKNSSTQDPSQPNSTKNQSLPKASPVTTSPTAATTQNPVLSKAAMADQDSPLDLTVRKSQSEPSEQDGVLDLSTKKSPCAGSTSLSHSPGCSSTQGNGRPGRPSQYRPDGLRSGDGVPPRSLQDGTREGFGHSTSLKVPLARSLQISEELLSRNQLSTAASLGPSGLQNHGQHLILSREASWAKPHYEFNLSRMKFRGNGALSNISDLPFLAENSAFPKMALQAKQDGKKDVSHSSPVDLKIPQVRGMDLSWESRTGDQYSYSSLVMGSQTESALSKKLRAILPKQSRKSMLDAGPDSWGSDAEQSTPGQPYPTSDQEGDPGSKQPRKKRGRYRQYNSEILEEAISVVMSGKMSVSKAQSIYGIPHSTLEYKVKERLGTLKNPPKKKMKLMRSEGPDVSVKIELDPQGEAAQSANESKNE
notes: also called rluc-LCoR-LSKAA; not shown: Renilla luciferase (rluc) of vector pRL-CMV
- fold reduction of hormone-independent interaction against wild-type LCoR (ERα-EYFP fusion protein): ~2 fold

Binder: B4
- binding result (HDAC4): no binding
- binding result (HDAC1): no binding

B5: GST-LSKAA (other)
chain: MQRMIQQFAAEYTSKNSSTQDPSQPNSTKNQSLPKASPVTTSPTAATTQNPVLSKAAMADQDSPLDLTVRKSQSEPSEQDGVLDLSTKKSPCAGSTSLSHSPGCSSTQGNGRPGRPSQYRPDGLRSGDGVPPRSLQDGTREGFGHSTSLKVPLARSLQISEELLSRNQLSTAASLGPSGLQNHGQHLILSREASWAKPHYEFNLSRMKFRGNGALSNISDLPFLAENSAFPKMALQAKQDGKKDVSHSSPVDLKIPQVRGMDLSWESRTGDQYSYSSLVMGSQTESALSKKLRAILPKQSRKSMLDAGPDSWGSDAEQSTPGQPYPTSDQEGDPGSKQPRKKRGRYRQYNSEILEEAISVVMSGKMSVSKAQSIYGIPHSTLEYKVKERLGTLKNPPKKKMKLMRSEGPDVSVKIELDPQGEAAQSANESKNE
notes: Positions 56 and 57 are counted from the printed motif start (53); also called GST-LCoR-LSKAA; GST fused to LCoR-LSKAA; not shown: glutathione S-transferase (GST) tag of vector pGEX2TK
- binding result (HDAC4): no binding
- binding result (HDAC1): no binding

B6: ER378 (receptor, UniProt P03372 1-378, looked up)
chain: MTMTLHTKASGMALLHQIQGNELEPLNRPQLKIPLERPLGEVYLDSSKPAVYNYPEGAAYEFNAAAAANAQVYGQTGLPYGPGSEAAAFGSNGLGGFPPLNSVSPSPLMLLHPPPQLSPFLQPHGQQVPYYLENEPSGYTVREAGPPAFYRPNSDNRRQGGRERLASTNDKGSMAMESAKETRYCAVCNDYASGYHYGVWSCEGCKAFFKRSIQGHNDYMCPATNQCTIDKNRRKSCQACRLRKCYEVGMMKGGIRKDRRGGRMLKHKRQRDDGEGRGEVGSAGDMRAANLWPSPLMIKRSKKNSLALSLTADQMVSALLDAEPPILYSEYDPTRPFSEASMMGLLTNLADRELVHMINWAKRVPGFVDLTLHDQVHL
notes: In vitro translated
- binding result (GST-TIF2.1): no binding

B7: Flag-m1+2 (Flag-tagged LCoR mutated in both CtBP binding sites) (other, not shown: small tags and cut ends)
chain: MQRMIQQFAAEYTSKNSSTQDPSQPNSTKNQSLPKASPVTTSPTAATTQNPVLSKLLMADQDSKSQSEPSEQDGKSPCAGSTSLSHSPGCSSTQGNGRPGRPSQYRPDGLRSGDGVPPRSLQDGTREGFGHSTSLKVPLARSLQISEELLSRNQLSTAASLGPSGLQNHGQHLILSREASWAKPHYEFNLSRMKFRGNGALSNISDLPFLAENSAFPKMALQAKQDGKKDVSHSSPVDLKIPQVRGMDLSWESRTGDQYSYSSLVMGSQTESALSKKLRAILPKQSRKSMLDAGPDSWGSDAEQSTPGQPYPTSDQEGDPGSKQPRKKRGRYRQYNSEILEEAISVVMSGKMSVSKAQSIYGIPHSTLEYKVKERLGTLKNPPKKKMKLMRSEGPDVSVKIELDPQGEAAQSANESKNE
notes: also called LCoR derivative (m1+2)
- binding result [1]: no binding
